In US20050079613A1 (OREGON HEALTH AND SCIENCE UNIVERSITY, published 2005):

Target: the molecule itself
Assay: anti-Flag immunoprecipitation from metabolically labeled HeLa cells, SDS-PAGE and anti-Flag western blot
Experimental: HeLa cells were grown to 80% confluency in 100 mm tissue culture dishes and transfected as above. At 24 hours post-infection, cells were incubated in serum-free and methionine-free medium for 30 minutes, and metabolically labeled with ³⁵S-cysteine/³⁵S-methionine (300 μCi/plate, Amersham) for 2 hr. After labeling, cells were washed twice with PBS and lysed immediately in PBS containing 1% Digitonin and protease inhibitors (Roche, Indianapolis, Ind.). The cell lysate was precleared with protein A/G agarose beads overnight and incubated with 3 μg of antibody for one hour, followed by one hour with protein A/G beads. Immunoprecipated proteins were washed five times with 0.25% Digitonin in PBS. All samples were boiled in Laemmli buffer and analyzed by SDS-PAGE gel electrophoresis. Gels were fixed, dried and exposed to Kodak BioMax MR film. Western blotting was accomplished using the WesternBreeze Chemiluminescent Detection System (Invitrogen), following semi-dry transfer to PVDF membranes (Millipore, Bedford, Mass.).

B1: MARCH-I (enzyme, not shown: small tags and cut ends)
chain: MTSSHVCCNFLNMWKKSKISTMYYLNQDAKLSNLFLQASSPTTGTAPRSQSRLSVCPSTQDICRICHCEGDEESPLITPCRCTGTLRFVHQSCLHQWIKSSDTRCCELCKYDFIMETKLKPLRKWEKLQMTTSERRKIFCSVTFHVIAITCVVWSLYVLIDRTAEEIKQGNDNGVLEWPFWTKLVVVAIGFTGGLVFMYVQCKVYVQLWRRLKAYNRVIFVQNCPDTAKKLEKNFSCNVNTDIKDAVVVPVPQTGANSLPSAEGGPPEVVSV
notes: Whole open reading frame expressed by transfection in HeLa cells; Flag-tagged in the immunoprecipitation; also called MARCHI-Flag; FLJ20668
- binding result: binds
